Molecular target: T1, LidA(FL), untagged (Legionella pneumophila strain Corby)
T1 chain: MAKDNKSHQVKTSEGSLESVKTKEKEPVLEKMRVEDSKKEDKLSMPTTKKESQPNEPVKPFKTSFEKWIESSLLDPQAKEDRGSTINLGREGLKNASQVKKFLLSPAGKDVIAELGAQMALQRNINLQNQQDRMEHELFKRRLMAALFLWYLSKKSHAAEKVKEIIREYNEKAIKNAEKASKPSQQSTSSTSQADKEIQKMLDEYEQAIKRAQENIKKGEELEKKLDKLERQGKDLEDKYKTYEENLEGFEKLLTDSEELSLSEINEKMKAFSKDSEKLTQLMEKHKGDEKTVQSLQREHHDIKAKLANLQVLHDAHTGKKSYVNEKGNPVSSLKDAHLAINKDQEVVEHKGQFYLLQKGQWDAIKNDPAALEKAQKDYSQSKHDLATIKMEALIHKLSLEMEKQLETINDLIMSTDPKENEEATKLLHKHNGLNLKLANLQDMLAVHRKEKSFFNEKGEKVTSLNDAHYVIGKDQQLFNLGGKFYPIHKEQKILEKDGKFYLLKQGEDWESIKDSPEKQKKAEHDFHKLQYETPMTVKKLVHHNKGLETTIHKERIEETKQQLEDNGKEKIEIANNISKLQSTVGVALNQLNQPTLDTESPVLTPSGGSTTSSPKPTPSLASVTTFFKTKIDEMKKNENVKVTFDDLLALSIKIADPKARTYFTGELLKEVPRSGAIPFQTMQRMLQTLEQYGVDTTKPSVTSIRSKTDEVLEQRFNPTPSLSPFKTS
Assay: ITC

B1: Rab22 (FL) (natural protein)
chain: MALRELKVCLLGDTGVGKSSIVWRFVEDSFDPNINPTIGASFMTKTVQYQNELHKFLIWDTAGQERFRALAPMYYRGSAAAIIVYDITKEETFSTLKNWVKELRQHGPPNIVVAIAGNKCDLIDVREVMERDAKDYADSIHAIFVETSAKNAININELFIEISRRIPSTDANLPSGGKGFKLRRQPSEPKRSCC
With B1 the Kd was 200 nM.

Reference: publication PMC3295573 (2012)
